Measured values taken from patent US7338938B2, “Methods for treating a patient undergoing chemotherapy” (University of Southern California, priority 1999, dated 2008).
Read-outs that look alike come from different tables or passages of the source.

Assays:
[1] = system: mice injected with 150 mg/kg 5FU intravenously (WBC, platelets, hemoglobin); assay: Effect of angiotensin fragments and ACE inhibitor on recovery after chemotherapy (Example 4); type: in vivo; conditions: after i.v. 5FU
Method: The next study was designed to test the effect of angiotensin peptides and the angiotensin converting enzyme inhibitor, enalapril, on recovery of white blood cells, platelets and hemoglobin after chemotherapy, as well as on granulocyte-macrophage colony forming units (GM-CFU) in the blood and bone marrow.
Female […] mice (4 per group), 6-8 weeks old, were injected with 150 mg/kg 5FU intravenously. Administration of the peptides (AII (100 μg/kg/day), AII(1-7) (10 or 100 μg/kg/day), AII(1-5) (10 or 100 μg/kg/day), and AII(1-6) (100 μg/kg/day)), by subcutaneous injection, or enalapril (30 mg/kg/day) by oral gavage, was begun 2 days after administration of the antineoplastic and continued daily until 28 days after 5FU administration, at which time the mice were euthanized for evaluation of white blood cell numbers, platelets, hemoglobin levels and the number of GM-CFU in the bone marrow and peripheral blood. On days 7, 10, 14 and 21 after 5FU administration, blood was taken under anesthesia from the retro-orbital sinus to assess white blood cell number, platelet number, and hemoglobin levels.
The mice were bled from the retro-orbital sinus at days 7, 10, 14 and 21. The mice were anesthetized with Metofane (an inhaled anesthesia). Approximately 150-200 μl of blood were obtained from the retro-orbital sinus with a heparinzed capillary tube. The blood was then placed in a 1.7 ml microfuge tube containing 10 mM EDTA and held on ice until further processing.
One hundred μl of blood was pipetted into a centrifuge tube, to which 900 μl of distilled water was added. The blood and water were mixed by inversion and allowed incubate at 4° C. for 20 minutes. The tube was then centrifuged at 12000 rpm to precipitate the cellular debri for 20 to 30 minutes at room temperature. Twenty μl of the supernatant from this centrifugation was then added into triplicate wells of a 96 well plate containing 180 μl of distilled water. The optical density, was then read using a microplate reader at […].
Twenty μl of blood was mixed with 200 μl of red blood cell (RBC) lysing solution (0.83% NH4Cl, 10 mM EDTA, 0.5% NaHCO3). The mixture was then incubated for 10 minutes at 4° C. After this incubation, the supernatant was removed and the pellet was resuspended in 100 μl of PBS. To this, 100 μl of 0.04% trypan blue was added. This mixture was vortexed and the number of WBC (baseline was approximately 10^7 cells/ml) was evaluated by hematocytometer under light microscopy and the number: of platelets (baseline was approximately 2.5×10^8 platelets/ml) was evaluated by hematocytometer under phase contrast microscopy.
The blood was harvested by cardiac puncture on day 10 to assess mobilization of myeloid progenitors into the peripheral blood. The femurs and tibia were also collected and the bone marrow was harvested by flushing with PBS containing 2% fetal calf serum. After collection of the blood and bone marrow, the red blood cells were lysed with a hypotonic solution (described above), mixed with 0.04% trypan blue, and the number of nucleated cells assessed by hematocytometer under light microscopy. Aliquots of cells were then resuspended at 1×10^5 cells/ml (bone marrow) or 1×10^6 cells/ml Flood). […]

[2] = system: patients with newly diagnosed breast cancer receiving doxorubicin and cyclophosphamide; assay: Phase I/II dose escalation study of AII(1-7) before and after chemotherapy (Example 5); conditions: in vivo
[3] = animal daily doses 10 to 1,000 μg/kg for 30 days; human 2.5 to 100 μg/kg/day
Method: Based upon safety evaluation studies in animals (where the daily doses tested ranged from 10 to 1,000 μg/kg for 30 days) and the pharmacology profile of, AII(1-7), the dose range used in humans ranged from 2.5 to 100 μg/kg/day over at least 10 days.

[4] = system: patients with newly diagnosed breast cancer receiving doxorubicin and cyclophosphamide
[5] = system: female C57B1/6 mice treated with 200 mg/kg cytoxan

Asp-Arg-Val-Tyr-Ile-His-Pro [AII(1-7)]
platelets after administration [1]: increase in platelets | drug related serious adverse events [2]: No drug related serious adverse events | safety (summary) [2]: safe without observed dose limiting toxicities | safety margin of human dose range over the animal exposures [3]: 9-10 fold | change in platelet number ([4]; 50 μg/kg/day AII(1-7)): only day 12 showed any change in platelet number | dose-limiting toxicities ([4]; 2.5 to 100 μg/kg/d): No dose-limiting toxicities | Toxicity: ANC < 1000/μl (frequency) ([4]; AII(1-7) 2.5 μg/kg): 100% | Toxicity: Hgb < 10 gm/dl (frequency) ([4]; AII(1-7) 2.5 μg/kg): 66% | Toxicity: Lymph < 500/μl (frequency) ([4]; AII(1-7) 2.5 μg/kg): 66% | Toxicity: Platelet < 80 K/μl (frequency) ([4]; AII(1-7) 2.5 μg/kg): 0% | Toxicity: WBC < 2000/μl (frequency) ([4]; AII(1-7) 2.5 μg/kg): 66% | Toxicity: ANC < 1000/μl (frequency) ([4]; AII(1-7) 10 μg/kg): 100% | Toxicity: Hgb < 10 gm/dl (frequency) ([4]; AII(1-7) 10 μg/kg): 33% | Toxicity: Lymph < 500/μl (frequency) ([4]; AII(1-7) 10 μg/kg): 33% | Toxicity: Platelet < 80 K/μl (frequency) ([4]; AII(1-7) 10 μg/kg): 0% | Toxicity: WBC < 2000/μl (frequency) ([4]; AII(1-7) 10 μg/kg): 66% | Toxicity: ANC < 1000/μl (frequency) ([4]; AII(1-7) 50 μg/kg): 100% | Toxicity: Hgb < 10 gm/dl (frequency) ([4]; AII(1-7) 50 μg/kg): 0% | Toxicity: Lymph < 500/μl (frequency) ([4]; AII(1-7) 50 μg/kg): 33% | Toxicity: Platelet < 80 K/μl (frequency) ([4]; AII(1-7) 50 μg/kg): 0% | Toxicity: WBC < 2000/μl (frequency) ([4]; AII(1-7) 50 μg/kg): 66% | Toxicity: ANC < 1000/μl (frequency) ([4]; AII(1-7) 75 μg/kg): 100% | Toxicity: Hgb < 10 gm/dl (frequency) ([4]; AII(1-7) 75 μg/kg): 0% | Toxicity: Lymph < 500/μl (frequency) ([4]; AII(1-7) 75 μg/kg): 0% | Toxicity: Platelet < 80 K/μl (frequency) ([4]; AII(1-7) 75 μg/kg): 0% | Toxicity: WBC < 2000/μl (frequency) ([4]; AII(1-7) 75 μg/kg): 100% | Toxicity: ANC < 1000/μl (frequency) ([4]; AII(1-7) 100 μg/kg): 100% | Toxicity: Hgb < 10 gm/dl (frequency) ([4]; AII(1-7) 100 μg/kg): 0% | Toxicity: Lymph < 500/μl (frequency) ([4]; AII(1-7) 100 μg/kg): 0% | Toxicity: Platelet < 80 K/μl (frequency) ([4]; AII(1-7) 100 μg/kg): 0% | Toxicity: WBC < 2000/μl (frequency) ([4]; AII(1-7) 100 μg/kg): 33% | platelets ([4]; across doses): dose-dependent increase in platelets | restoration of hemoglobin prior to the next cycle ([4]; all doses): restoration of hemoglobin prior to the next cycle was observed | over-production of formed blood elements ([4]; before or after chemotherapy): No over-production of formed blood elements | Alopecia (frequency by treatment group) ([4]; chemotherapy patients): 46% | Anemia (frequency by treatment group) ([4]; chemotherapy patients): 7% | Fatigue (frequency by treatment group) ([4]; chemotherapy patients): 93% | Headache (frequency by treatment group) ([4]; chemotherapy patients): 26% | Myalgia/Muscle-skeletal pain (frequency by treatment group) ([4]; chemotherapy patients): 53% | Nausea (frequency by treatment group) ([4]; chemotherapy patients): 93% | Stomatitis (frequency by treatment group) ([4]; chemotherapy patients): 40% | Vomiting (frequency by treatment group) ([4]; chemotherapy patients): 80% | frequency of grade 2-4 anemia ([4]; compared to filgrastim): reduced the frequency | frequency of grade 2-4 thrombocytopenia ([4]; compared to filgrastim): reduced the frequency | frequency of grade 3-4 lymphopenia ([4]; compared to filgrastim): reduced the frequency | late neutrophil recovery ([4]; compared to filgrastim): enhanced compared to filgrastim | synergy between filgrastim and AII(1-7) ([4]; following 10-12 days of AII(1-7), as little as 1 dose of filgrastim normalizes the neutrophil count): possible synergy | ability to maintain on cycle, full intensity chemotherapy ([4]; in vivo): permitted the patients to maintain full intensity chemotherapy on cycle | cycle delays due to neutropenia ([4]; in vivo): No cycle delays due to neutropenia | dose at which anemia correction with each cycle was observed ([4]; in vivo): ≥ 2.5 µg/kg | dose intensity of chemotherapy received by all study patients ([4]; in vivo): 100% | doses that appear to be active ([4]; in vivo): greater than 10 μg/kg/day | hematopoietic lineages ([4]; in vivo): increase in multiple hematopoietic lineages | level of nadir in number of white blood cells and absolute neutrophil count and time to these nadirs ([4]; in vivo): dose dependent increase | mobilization of hematopoietic progenitors into the peripheral blood ([4]; in vivo): mobilization of hematopoietic progenitors into the peripheral blood | neutrophil nadirs ([4]; in vivo): not affected | optimal dosage range ([4]; in vivo): 50 to 75 µg/kg/day | recovery towards baseline in formed blood elements ([4]; in vivo): improves the recovery towards baseline in all formed blood elements | day of nadir in platelet number ([4]; lowest dose of AII(1-7)): 12 days | hemoglobin after chemotherapy ([4]; lowest dose of AII(1-7)): reduction in hemoglobin was observed | hemoglobin level by the next cycle ([4]; lowest dose of AII(1-7)): returned to baseline levels by the next cycle | change in platelet number ([4]; next higher dose than 50 μg/kg/day): no decrease in platelet number occurred | reduction of the frequency of stomatitis ([4]; of that observed with filgrastim treatment): 30% | doses of filgrastim needed at day 15 to treat grade 4 neutropenia ([4]; patients treated at 2.5 and 10 μg/kg AII(1-7)): 1-2 doses | acute effect on blood pressure following administration ([4]; patients with or without a history of hypertension): No acute affect on blood pressure | frequency of headache, muscle pain and alopecia ([4]; relative to historical numbers and filgrastim controls): decreasing the frequency | anemia ([4]; subsequent dose increases of AII(1-7)): slight to no anemia | number of GM-CFU in the bone marrow ([5]; 100 μg/kg/day, started 2 days prior to cytoxan): slightly reduced | number of myeloid progenitor cells in the bone marrow ([5]; administration initiated 2 days after chemotherapy): increased the number of myeloid progenitor cells in the bone marrow | number of myeloid progenitors in the peripheral blood ([5]; administration initiated after cyclophosphamide treatment): increased the number of myeloid progenitors in the peripheral blood | recovery of WBC after intravenous cyclophosphamide ([5]; s.c. treatment initiated two days after the chemotherapeutic): accelerated the recovery of WBC | time after cyclophosphamide at which increase in WBC number was observed ([5]; treatment initiated two days after cyclophosphamide): ≤ 9 days | WBC number compared with control ([5]; treatment initiated two days prior to cyclophosphamide, starting on day 14): decrease in WBC number compared with control
